Data taken from US10106582B2, “Complex-formation-modulating agents and uses therefor” (Factor Therapeutics Limited, priority 2012, dated 2018).

Tests used:
[1] = tested on: MCF-7 cells; test: Transwell migration assay, IGF-I+IGFBP-3+VN (TRI)-stimulated MCF-7 cell migration; type: cell-based, human
Description: FIG. 6 is a graphical representation showing MCF-7 cell migration in response to VN peptides. MCF-7 cells were seeded onto the upper-surface of a Transwell inserts coated on the under-surface with treatments containing IGF-I+IGFBP-3+VN (TRI; 10 nM) with or without increasing concentrations of either peptide P7, P8 or Pneg. Migration was assessed after 15 hours. Data is represented as percentage of change in migration compared to the TRI only control. Error bars indicate standard error mean.
This assay has been repeated three times with treatments tested in triplicate wells in each replicate experiment.
The breast cancer epithelial cell line MCF-7 was used for this assay. Migration was assessed by measuring relative number of cells migrating through 8-μm pore Transwell membranes in response to substrate-bond proteins complexes. IGFBP-3 was allowed to bind either peptide P7, P8 or a combination of P7 and P8 for 2 hours. IGF-I was later added to this protein mix which was then added to Transwells pre-coated with VN. Post-overnight incubation, unbound proteins were removed, Transwells washed twice and cells seeded onto the upper chamber. Cells migrated to the under-surface over 15 hours were indirectly quantified using crystal violet staining.

[2] = biological target: T1, IGF-II (Homo sapiens, UniProt P01344); test: VN-peptide array: binding of IGF-II to immobilized overlapping 16-mer VN peptides; details: spot stronger than negative controls = positive hit
T1 construct: purchased GroPep
Source text: (§1) The inventors designed small-molecule VN-peptides that could potentially disrupt the formation of the IGF-I:IGFBP:VN trimeric or the IGF-II:VN dimeric complexes by binding to the IGFBPs and/or IGF-II and preventing their association with VN within the complex. To design peptides, the binding sites of IGFBP-3/-5 and IGF-II on VN were first determined using VN-peptide arrays. The entire VN protein sequence, excluding the signal peptide (residues 1-19), was divided into overlapping 16-mer peptides with 3AA frameshift/offset (for peptide sequences refer to Table 6) and immobilized onto cellulose membranes (peptide spotting was outsourced to PepMetric Technologies Inc). For a schematic of the arrangement of VN peptides and controls refer to FIG. 2. The resultant peptide arrays were incubated either with IGFBP-3, IGFBP-5 or IGF-II ligands, probed with the respective antibodies, the membranes developed using ECL, and imaged using the ChemiDoc™ XRS system (BioRad). The spots on the membrane were analysed using TotalLab array quantification software (TotalLab Ltd, Newcastle, England) identifying positive peptide spots by comparing each spot to the combined intensities of the negative controls.
The entire VN protein sequence, excluding the signal peptide (residues 1-19), was divided into overlapping 16-mer peptides with 3 amino acid (AA) frameshift/offset. This yielded 148 overlapping peptides covering the entire VN sequence (residues 20-478) (Table 6) with a resolution of 3 AA. Peptide synthesis and spotting onto a cellulose membrane were outsourced to PepMetric Technologies Inc. (Richmond, BC, Canada). For a diagrammatic illustration of the strategy used to divide an example amino acid sequence into peptides and to spot them onto the membrane, please refer to http://www.pepmetric.com/html/Pep-Overlap.html. The VN-overlapping peptides were generated using FMOC (9-fluorenylmethoxycarbonyl) Solid-Phase SPOT synthesis onto PEG-grafted amine-functionalized cellulose membrane (Whatman® 540 filter paper). The peptides were spotted onto the cellulose membrane in a 10×16 grid with each peptide being 10˜50 nM in concentration with >70% purity. Finally, these membranes were acetylated in order to cap the free ends of the spotted peptides preventing them from degradation during shipping and storage.
Along with the VN-peptides these membranes were also spotted with a positive control (i.e., universal binding peptides tested by the manufacturer to be positive for antibodies from goat, mouse, rat and chicken) and a negative control (ie. non-binding peptides as well as BSA) controls. For a schematic of the arrangement of VN-peptides and controls refer to FIG. 2 and for the sequence of each peptide corresponding to the grid number refer to Table 6. Four such replicate membranes were prepared and stored at room temperature in a clip sealed plastic bag. Long-term storage was at −20° C.
Methanol or ethanol was used to enhance the rehydration of peptide spots that might be hydrophobic. The peptides spotted onto the membranes were activated by incubating in 3 mL of 70% ethanol for five mins. The membranes were subsequently washed three times, 10 minutes each, in 10 mL TBS (Tris Buffered Saline; 8 g NaCl, 0.2 g KCl and 6.1 g Tris Base into 1000 mL of milliQ water, pH 7) with gentle rocking. Membrane blocking was performed by incubating in 10 mL casein-based membrane blocking buffer (MBS; Sigma-Aldrich) overnight at 4° C. The following day, the membranes were washed twice, 10 minutes each, in 10 mL TBS-T (TBS+0.05% Tween-20; pH 7).
Ligands used to test binding to VN-peptides were IGFBP-3, IGFBP-5 and IGF-II. For ligand binding, four separate solutions of 1 μg/mL ligand in 10 mL MBS buffer were prepared and each membrane was incubated in one of the four ligand solutions overnight at 4° C., with gentle rocking. […] The following day, the membranes were washed three times, 10 minutes each, in 10 mL TBS-T. […]

[3] = biological target: T2, IGFBP-5 (Homo sapiens, UniProt P24593); test: VN-peptide array: binding of IGFBP-5 to immobilized overlapping 16-mer VN peptides; details: spot stronger than negative controls = positive hit
T2 construct: purchased GroPep
Source text: as §1
The entire VN protein sequence, excluding the signal peptide (residues 1-19), was divided into overlapping 16-mer peptides with 3 amino acid (AA) frameshift/offset. […]

[4] = increasing peptide concentrations added to TRI (IGF-I+IGFBP-3+VN; 10 nM), 15 hours

T1 sequence (P01344 25-91 limits assumed): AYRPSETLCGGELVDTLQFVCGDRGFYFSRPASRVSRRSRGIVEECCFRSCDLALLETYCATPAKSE
T2 sequence (P24593 21-272): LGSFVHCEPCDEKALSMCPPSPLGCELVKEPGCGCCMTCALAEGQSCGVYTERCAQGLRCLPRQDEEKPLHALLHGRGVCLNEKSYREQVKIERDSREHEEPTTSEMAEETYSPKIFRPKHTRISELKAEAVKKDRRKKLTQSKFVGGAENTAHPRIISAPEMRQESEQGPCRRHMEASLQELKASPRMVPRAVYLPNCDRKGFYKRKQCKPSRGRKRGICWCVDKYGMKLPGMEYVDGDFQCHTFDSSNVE

| Binding of IGF-II on VN-peptide array (positive spot or not) [2] | Binding of IGFBP-5 on VN-peptide array (positive spot or not) [3] | Sequence | Inhibition of TRI-stimulated MCF-7 cell migration [1, 4] | Inhibition of TRI-stimulated MCF-7 cell migration ([1]; 30 nM peptide dose, TRI 10 nM, 15 hours (most significant inhibition)) |
| --- | --- | --- | --- | --- |
| did not show any binding | did not show any binding | KTYLFKGSQYWRFEDG [Neg, reference compound] | no inhibition of cell migration was observed | – |
| binds | does not bind | LFSSEESNLGANNYDDYRMDWL (listed as Homo sapiens) [Peptide P7, human VN motif 7 mimic] | dose dependent inhibition | returned to the ‘VN only’ treatment levels |
